Values of other authors in patent publication US12383526B2, “Optimized sigma-1 agonist method of responder selection and treatment” (ANAVEX LIFE SCIENCES CORP., priority 2018, dated 2025).

Settings: after 72 weeks; CTAD 2018; cited from earlier work

B1: BAN2401: comparison from other studies: data presented at CTAD 2018 for BAN2401 after 72 weeks (antibody, chains of the INN, looked up, V domains shown)
VH: EVQLVESGGGLVQPGGSLRLSCSASGFTFSSFGMHWVRQAPGKGLEWVAYISSGSSTIYYGDTVKGRFTISRDNAKNSLFLQMSSLRAEDTAVYYCAREGGYYYGRSYYTMDYWGQGTTVTVSS
VL: DVVMTQSPLSLPVTPGAPASISCRSSQSIVHSNGNTYLEWYLQKPGQSPKLLIYKVSNRFSGVPDRFSGSGSGTDFTLRISRVEAEDVGIYYCFQGSHVPPTFGPGTKLEIK
adjusted mean change from baseline in ADAS-Cog: 47% | adjusted mean change in ADCOMS: 30%
